Here are results for 49 variants from the Human Domainome abundance scans (Beltran et al. 2025).

± gives the uncertainty stated by the source.

B1: DnaJ homolog subfamily C member 2, residues 451 to 503; numbered along this chain, Q99543 (parent)
chain: SKNWSEDDLQLLIKAVNLFPAGTNSRWEVIANYMNIHSSSGVKRTAKDVIGKA

The series covers variants of B1. Put plainly: abundance fitness (aPCA) (normalised: wild type 0, dead -1); higher = more abundant; growth selection in yeast, the domain comes from the species named. The following applies: Homo sapiens.
Regarding SKNWSEDDEQLLIKAVNLFPAGTNSRWEVIANYMNIHSSSGVKRTAKDVIGKA [L9E], the abundance fitness amounted to 0.03 ± 0.068. Take SKNWSEDDYQLLIKAVNLFPAGTNSRWEVIANYMNIHSSSGVKRTAKDVIGKA [L9Y]: the abundance fitness stood at 0.022 ± 0.071.

As to SKNWSEDDGQLLIKAVNLFPAGTNSRWEVIANYMNIHSSSGVKRTAKDVIGKA [L9G], the abundance fitness is -0.143 ± 0.056. With SKNWSEDDFQLLIKAVNLFPAGTNSRWEVIANYMNIHSSSGVKRTAKDVIGKA [L9F], the abundance fitness came out at 0.065 ± 0.078. Then SKNWSEDDVQLLIKAVNLFPAGTNSRWEVIANYMNIHSSSGVKRTAKDVIGKA [L9V], with -0.082 ± 0.058.

In the case of SKNWSEDDWQLLIKAVNLFPAGTNSRWEVIANYMNIHSSSGVKRTAKDVIGKA [L9W], the abundance fitness is -0.058 ± 0.068. As for SKNWSEDDHQLLIKAVNLFPAGTNSRWEVIANYMNIHSSSGVKRTAKDVIGKA [L9H], the abundance fitness was -0.071 ± 0.11. Take SKNWSEDDDQLLIKAVNLFPAGTNSRWEVIANYMNIHSSSGVKRTAKDVIGKA [L9D]: the abundance fitness amounted to 0.156 ± 0.099. Then SKNWSEDDIQLLIKAVNLFPAGTNSRWEVIANYMNIHSSSGVKRTAKDVIGKA [L9I], with -0.014 ± 0.075; and SKNWSEDDCQLLIKAVNLFPAGTNSRWEVIANYMNIHSSSGVKRTAKDVIGKA [L9C], with -0.052 ± 0.091. Then SKNWSEDDMQLLIKAVNLFPAGTNSRWEVIANYMNIHSSSGVKRTAKDVIGKA [L9M], with 0.036 ± 0.078; and SKNWSEDDRQLLIKAVNLFPAGTNSRWEVIANYMNIHSSSGVKRTAKDVIGKA [L9R], with -0.054 ± 0.058. Turning to SKNWSEDDPQLLIKAVNLFPAGTNSRWEVIANYMNIHSSSGVKRTAKDVIGKA [L9P], the abundance fitness was -0.724 ± 0.11.

As for SKNWSEDDAQLLIKAVNLFPAGTNSRWEVIANYMNIHSSSGVKRTAKDVIGKA [L9A], the abundance fitness was -0.014 ± 0.078. The same measure for SKNWSEDDNQLLIKAVNLFPAGTNSRWEVIANYMNIHSSSGVKRTAKDVIGKA [L9N]: 0.184 ± 0.11. Regarding SKNWSEDDQQLLIKAVNLFPAGTNSRWEVIANYMNIHSSSGVKRTAKDVIGKA [L9Q], the abundance fitness was found to be 0.145 ± 0.085. In the case of SKNWSEDDKQLLIKAVNLFPAGTNSRWEVIANYMNIHSSSGVKRTAKDVIGKA [L9K], the abundance fitness is -0.043 ± 0.088. The same measure for SKNWSEVDLQLLIKAVNLFPAGTNSRWEVIANYMNIHSSSGVKRTAKDVIGKA [D7V]: -0.054 ± 0.061; for SKNWSEYDLQLLIKAVNLFPAGTNSRWEVIANYMNIHSSSGVKRTAKDVIGKA [D7Y]: -0.369 ± 0.094; for SKNWSEQDLQLLIKAVNLFPAGTNSRWEVIANYMNIHSSSGVKRTAKDVIGKA [D7Q]: 0.063 ± 0.07.

Take SKNWSEMDLQLLIKAVNLFPAGTNSRWEVIANYMNIHSSSGVKRTAKDVIGKA [D7M]: the abundance fitness amounted to 0.037 ± 0.077. For SKNWSEGDLQLLIKAVNLFPAGTNSRWEVIANYMNIHSSSGVKRTAKDVIGKA [D7G], the abundance fitness is -0.015 ± 0.057. Regarding SKNWSETDLQLLIKAVNLFPAGTNSRWEVIANYMNIHSSSGVKRTAKDVIGKA [D7T], the abundance fitness was -0.005 ± 0.064. Regarding SKNWSEIDLQLLIKAVNLFPAGTNSRWEVIANYMNIHSSSGVKRTAKDVIGKA [D7I], the abundance fitness was -0.19 ± 0.089. The same measure for SKNWSEPDLQLLIKAVNLFPAGTNSRWEVIANYMNIHSSSGVKRTAKDVIGKA [D7P]: -0.045 ± 0.067; for SKNWSEKDLQLLIKAVNLFPAGTNSRWEVIANYMNIHSSSGVKRTAKDVIGKA [D7K]: -0.04 ± 0.071. Then SKNWSECDLQLLIKAVNLFPAGTNSRWEVIANYMNIHSSSGVKRTAKDVIGKA [D7C], with -0.889 ± 0.16; and SKNWSEEDLQLLIKAVNLFPAGTNSRWEVIANYMNIHSSSGVKRTAKDVIGKA [D7E], with 0.086 ± 0.068.

Regarding SKNWSENDLQLLIKAVNLFPAGTNSRWEVIANYMNIHSSSGVKRTAKDVIGKA [D7N], the abundance fitness was -0.114 ± 0.063. Consider SKNWSEHDLQLLIKAVNLFPAGTNSRWEVIANYMNIHSSSGVKRTAKDVIGKA [D7H], for which the abundance fitness is -0.257 ± 0.096.

Regarding SKNWSELDLQLLIKAVNLFPAGTNSRWEVIANYMNIHSSSGVKRTAKDVIGKA [D7L], the abundance fitness is -0.047 ± 0.053.

For SKNWSESDLQLLIKAVNLFPAGTNSRWEVIANYMNIHSSSGVKRTAKDVIGKA [D7S], the abundance fitness was 0.042 ± 0.057. The same measure for SKNWSEFDLQLLIKAVNLFPAGTNSRWEVIANYMNIHSSSGVKRTAKDVIGKA [D7F]: -0.308 ± 0.096; for SKNWSEADLQLLIKAVNLFPAGTNSRWEVIANYMNIHSSSGVKRTAKDVIGKA [D7A]: 0.106 ± 0.058; for SKNWSERDLQLLIKAVNLFPAGTNSRWEVIANYMNIHSSSGVKRTAKDVIGKA [D7R]: 0.015 ± 0.053. SKNWSEWDLQLLIKAVNLFPAGTNSRWEVIANYMNIHSSSGVKRTAKDVIGKA [D7W]: the abundance fitness was -0.437 ± 0.066.

With SKNWSEDDLQCLIKAVNLFPAGTNSRWEVIANYMNIHSSSGVKRTAKDVIGKA [L11C], the abundance fitness is -0.403 ± 0.083.

On to SKNWSEDDLQALIKAVNLFPAGTNSRWEVIANYMNIHSSSGVKRTAKDVIGKA [L11A], for which the abundance fitness is -0.712 ± 0.073. Then SKNWDEDDLQLLIKAVNLFPAGTNSRWEVIANYMNIHSSSGVKRTAKDVIGKA [S5D], with -0.676 ± 0.32.

SKNWCEDDLQLLIKAVNLFPAGTNSRWEVIANYMNIHSSSGVKRTAKDVIGKA [S5C]: the abundance fitness is -0.286 ± 0.23. The same measure for SKNWFEDDLQLLIKAVNLFPAGTNSRWEVIANYMNIHSSSGVKRTAKDVIGKA [S5F]: -0.654 ± 0.19; for SKNWAEDDLQLLIKAVNLFPAGTNSRWEVIANYMNIHSSSGVKRTAKDVIGKA [S5A]: -0.747 ± 0.41. Regarding SKNWYEDDLQLLIKAVNLFPAGTNSRWEVIANYMNIHSSSGVKRTAKDVIGKA [S5Y], the abundance fitness was -0.715 ± 0.5.

Consider SKNWVEDDLQLLIKAVNLFPAGTNSRWEVIANYMNIHSSSGVKRTAKDVIGKA [S5V], for which the abundance fitness is -0.676 ± 0.36. The same measure for SKNWMEDDLQLLIKAVNLFPAGTNSRWEVIANYMNIHSSSGVKRTAKDVIGKA [S5M]: -0.514 ± 0.48. On to SKNWTEDDLQLLIKAVNLFPAGTNSRWEVIANYMNIHSSSGVKRTAKDVIGKA [S5T], for which the abundance fitness is -0.014 ± 0.18. As to SKNTSEDDLQLLIKAVNLFPAGTNSRWEVIANYMNIHSSSGVKRTAKDVIGKA [W4T], the abundance fitness is -0.621 ± 0.073.

On to SKNYSEDDLQLLIKAVNLFPAGTNSRWEVIANYMNIHSSSGVKRTAKDVIGKA [W4Y], for which the abundance fitness is -0.341 ± 0.097.

For the variant SKNVSEDDLQLLIKAVNLFPAGTNSRWEVIANYMNIHSSSGVKRTAKDVIGKA [W4V], the abundance fitness is -0.908 ± 0.076.
